One block for each binder: values may come before it.
Assays:
Sar1p = Sar1p (UniProt P20606 1-190); assay: pull-down
Glo3p = Glo3p (UniProt P38682 1-493); assay: pull-down
Glo3p, sequence (P38682 whole entry): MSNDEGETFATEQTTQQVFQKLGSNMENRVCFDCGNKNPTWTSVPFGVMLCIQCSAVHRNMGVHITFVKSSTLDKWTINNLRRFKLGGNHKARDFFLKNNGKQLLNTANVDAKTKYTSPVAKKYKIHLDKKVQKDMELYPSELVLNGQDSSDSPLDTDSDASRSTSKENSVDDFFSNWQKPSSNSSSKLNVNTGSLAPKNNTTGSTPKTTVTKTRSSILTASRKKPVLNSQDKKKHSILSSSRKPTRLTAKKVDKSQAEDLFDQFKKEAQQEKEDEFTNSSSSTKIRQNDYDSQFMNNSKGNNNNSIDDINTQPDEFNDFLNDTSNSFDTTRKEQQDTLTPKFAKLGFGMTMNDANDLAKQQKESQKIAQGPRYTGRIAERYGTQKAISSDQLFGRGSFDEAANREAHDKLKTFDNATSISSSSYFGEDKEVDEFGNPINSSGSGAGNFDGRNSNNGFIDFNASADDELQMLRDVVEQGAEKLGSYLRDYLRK

Sar1p, sequence (P20606 whole entry): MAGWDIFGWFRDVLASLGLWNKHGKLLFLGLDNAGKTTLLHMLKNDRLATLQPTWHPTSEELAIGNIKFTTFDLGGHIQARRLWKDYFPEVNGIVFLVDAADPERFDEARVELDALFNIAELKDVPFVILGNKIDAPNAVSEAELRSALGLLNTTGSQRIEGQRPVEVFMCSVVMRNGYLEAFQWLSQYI

binding result (Sar1p): binds
B1: Bet1p-GST (domain or fragment)
chain: MSSRFAGGNAYQRDTGRTQLFGPADGSNSLDDNVSSALGSTDKLDYSQSTLASLESQSEEQMGAMGQRIKALKSLSLKMGDEIRGSNQTIDQLGDTFHNTSVKLKRTFGNMMEMARRSG

binding result (Glo3p): binds
B2: Bet1p-(41–119) (domain or fragment)
chain: TDKLDYSQSTLASLESQSEEQMGAMGQRIKALKSLSLKMGDEIRGSNQTIDQLGDTFHNTSVKLKRTFGNMMEMARRSG

Reference: publication PMC2173288 (The Journal of Cell Biology, 2002)
